Reference: paper PMC9912195, “The 3D‐structure, kinetics and dynamics of the E. coli nitroreductase NfsA with NADP ^+ provide glimpses of its catalytic mechanism” (Febs Letters, 2022)

How the values were obtained:
NfsA [1] = target: T1, NfsA (Escherichia coli, UniProt P17117); assay: stopped-flow re-oxidation of reduced enzyme, […] nm, anaerobic; type: biochemical; details: dithionite-reduced enzyme
T1 construct: full-length, untagged, from pET24 derivative pPS1341A1 in E. coli BL21(lambda DE3); 240 amino acids

NfsA [2] = target: T1, NfsA; assay: steady-state inhibition of nitrofurazone reduction, global ping-pong fit, […] nm; type: biochemical
NfsA [3] = target: T1, NfsA; assay: steady-state kinetics; type: biochemical; details: co-substrate NADPH
[4] = test system: NC(=O)C1=CN([C@@H]2O[C@H](COP(=O)(O)OP(=O)(O)OC[C@H]3O[C@@H](n4cnc5c(N)ncnc54)[C@H](O)[C@@H]3O)[C@@H](O)[C@H]2O)C=CC1; assay: purified protein; type: biochemical, Escherichia coli; details: 100 μM nitrofurazone, 10 mM Tris pH 7.0, 4.5% DMSO, 25 °C
[5] = test system: NC(=O)C1=CN([C@@H]2O[C@H](COP(=O)(O)OP(=O)(O)OC[C@H]3O[C@@H](n4cnc5c(N)ncnc54)[C@H](OP(=O)(O)O)[C@@H]3O)[C@@H](O)[C@H]2O)C=CC1; assay: purified protein; type: biochemical, Escherichia coli; details: 100 μM nitrofurazone, 10 mM Tris pH 7.0, 4.5% DMSO, 25 °C
[6] = test system: NC(=O)N/N=C/c1ccc([N+](=O)[O-])o1; assay: purified protein; type: biochemical, Escherichia coli; details: co-substrate NADPH, 10 mM Tris pH 7.0, 50 mM NaCl, 4.5% DMSO, 25 °C

T1 sequence (P17117 whole entry): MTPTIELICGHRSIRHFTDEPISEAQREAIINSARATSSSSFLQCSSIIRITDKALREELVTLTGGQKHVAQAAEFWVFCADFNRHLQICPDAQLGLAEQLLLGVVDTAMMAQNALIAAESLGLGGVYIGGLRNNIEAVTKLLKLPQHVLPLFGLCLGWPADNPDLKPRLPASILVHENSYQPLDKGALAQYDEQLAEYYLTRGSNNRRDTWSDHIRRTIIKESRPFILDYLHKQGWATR

Molecule: NC(=O)c1cc(N2CC2)c([N+](=O)[O-])cc1[N+](=O)[O-] [CB1954, 5 aziridin‐1‐yl‐2,4 dinitrobenzamide]
- K d (NfsA [1]; 10 mM Tris pH 7, 5% DMSO, 25 °C, unreliable (extrapolated beyond highest concentration 500 μM)): 660 ± 90 µM

Molecule: NC(=O)c1ccc[n+]([C@@H]2O[C@H](COP(=O)(O)OP(=O)(O)OC[C@H]3O[C@@H](n4cnc5c(N)ncnc54)[C@H](OP(=O)(O)O)[C@@H]3O)[C@@H](O)[C@H]2O)c1 [NADP^+]
- Ki (NfsA [2]): 250 ± 70 µM

Molecule: CC1=CC(=O)c2ccccc2C1=O [menadione]
- K d (NfsA [1]; 10 mM Tris pH 7, 25 °C, unreliable (extrapolated, highest concentration 100 μM)): 330 ± 115 µM
- Km (NfsA [3]): 11 ± 2 µM

Molecule: NfsA (Escherichia coli K-12)
- Km [4]: 700 ± 100 µM
- kcat [4]: 20 ± 1 s⁻¹
- kcat/Km [4]: 27000 ± 3000 M⁻¹ s⁻¹
- Km [5]: 19 ± 4 µM
- kcat [5]: 24 ± 1 s⁻¹
- kcat/Km [5]: 1.2e+06 ± 200000 M⁻¹ s⁻¹
- Km [6]: 12 µM
- kcat [6]: 23.1 s⁻¹
